Blank lines part the entries; values can stand above or below the binder they belong to.
Tests used:
Conditions in all cases: both partners purified
[1] = biological target: T1, GST-hRpn10^305–377 (human, UniProt P55036 305-377); assay: SPR; Biacore T200; GST-hRpn10 305-377 captured (800 RU) by anti-GST antibody on a CM5 chip, GST on the reference cell; E6AP AZUL 5-250 nM in HBS-P+ with 10 μM zinc sulfate, single cycle kinetics, triplicate
T1 construct: pGEX-6P-3; a PreScission site lies between GST and hRpn10; source: E. coli Rosetta 2 (DE3), purified (glutathione sepharose, glutathione elution, SEC); not shown: GST, N-terminal, kept
T1 sequence (looked up): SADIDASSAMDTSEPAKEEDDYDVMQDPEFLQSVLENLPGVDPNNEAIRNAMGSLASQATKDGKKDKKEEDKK

[2] = biological target: T2, hRpn10^305–377 (RAZUL, Rpn10 AZUL-binding domain) (human, UniProt P55036 305-377); assay: ITC; 25 °C, MicroCal iTC200; E6AP AZUL injected into hRpn10 305-377 (0.0405 mM) or hRpn10 322-366 peptides (0.01 mM) in the cell; 10 mM MOPS pH 6.5, 50 mM NaCl, 5 mM DTT, 10 μM zinc sulfate; one-site fit
T2 construct: Isotope-labelled (15N, 13C, 2H) in some NMR samples; also called hRpn10 RAZUL; source: E. coli Rosetta 2 (DE3), purified (glutathione sepharose, PreScission cleavage, SEC); not shown: GST, N-terminal, cleaved
T2 sequence (looked up): T1 sequence (looked up)

[3] = biological target: ubiquitin (UniProt P0CG48 1-76); assay: NMR titration; 2D NMR on 15N-hRpn10 196-377, ubiquitin added; 25 °C, 10 mM MOPS pH 6.5, 50 mM NaCl, 5 mM DTT, 10 μM zinc sulfate
[4] = biological target: T3, full-length E6AP (Isoform II) (human, UniProt Q05086 1-875); assay: pull-down; 2 nmol His-tagged hRpn10 construct on Ni-NTA agarose, 200 pmol E6AP for 1 h; 10 mM MOPS pH 6.5, 50 mM NaCl, 5 mM 2-mercaptoethanol, 10 μM zinc sulfate; Coomassie staining
T3 construct: E6AP/UBE3A, isoform II, full length; catalytic cysteine C843 in isoform II; also called UBE3A; source: bought: UBPBio K1411
T3 sequence (Q05086 whole entry, canonical isoform): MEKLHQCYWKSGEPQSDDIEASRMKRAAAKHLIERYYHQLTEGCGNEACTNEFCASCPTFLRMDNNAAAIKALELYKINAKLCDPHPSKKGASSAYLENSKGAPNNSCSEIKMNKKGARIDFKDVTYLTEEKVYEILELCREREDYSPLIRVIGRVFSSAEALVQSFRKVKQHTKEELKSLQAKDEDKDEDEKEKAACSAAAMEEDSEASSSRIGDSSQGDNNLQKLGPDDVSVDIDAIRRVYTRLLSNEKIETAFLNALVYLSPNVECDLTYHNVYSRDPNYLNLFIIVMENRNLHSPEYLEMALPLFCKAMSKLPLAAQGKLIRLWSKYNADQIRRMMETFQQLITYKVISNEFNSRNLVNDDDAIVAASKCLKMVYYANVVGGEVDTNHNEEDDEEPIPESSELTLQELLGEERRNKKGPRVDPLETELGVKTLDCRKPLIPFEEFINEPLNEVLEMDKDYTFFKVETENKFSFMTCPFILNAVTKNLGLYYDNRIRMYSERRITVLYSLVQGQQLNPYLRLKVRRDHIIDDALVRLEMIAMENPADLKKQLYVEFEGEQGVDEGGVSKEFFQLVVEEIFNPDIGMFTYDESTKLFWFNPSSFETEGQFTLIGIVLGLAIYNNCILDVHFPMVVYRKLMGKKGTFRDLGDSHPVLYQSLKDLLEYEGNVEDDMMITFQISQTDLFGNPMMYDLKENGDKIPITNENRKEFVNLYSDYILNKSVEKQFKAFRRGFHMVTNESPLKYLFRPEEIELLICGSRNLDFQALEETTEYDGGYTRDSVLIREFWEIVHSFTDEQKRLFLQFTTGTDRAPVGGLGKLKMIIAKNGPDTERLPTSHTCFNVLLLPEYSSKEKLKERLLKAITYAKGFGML

Kd [1]: 8.1 nM
Kd [2]: 11.6 nM
B1: E6AP AZUL (amino-terminal zinc-binding domain of ubiquitin E3a ligase), amino acids 24 to 87 (domain or fragment, human, UniProt Q05086 24-87, looked up)
chain: MKRAAAKHLIERYYHQLTEGCGNEACTNEFCASCPTFLRMDNNAAAIKALELYKINAKLCDPHP
notes: E6AP/UBE3A AZUL domain, human, amino acids 24 to 87, subcloned from HA-E6AP isoform II; zinc sulfate in the buffers; Isotope-labelled (15N, 13C) in some NMR samples; also called AZUL domain; source: E. coli BL21 (DE3), purified (Ni-NTA, thrombin cleavage, SEC); not shown: polyhistidine tag, N-terminal, cleaved

binding result [3]: binds
binding result [4]: binds
B2: His-hRpn10^196–377 (domain or fragment, human, UniProt P55036 196-377, looked up)
chain: MLGLGASDFEFGVDPSADPELALALRVSMEEQRQRQEEEARRAAAASAAEAGIATTGTEDSDDALLKMTISQQEFGRTGLPDLSSMTEEEQIAYAMQMSLQGAEFGQAESADIDASSAMDTSEPAKEEDDYDVMQDPEFLQSVLENLPGVDPNNEAIRNAMGSLASQATKDGKKDKKEEDKK
notes: pET14b with a thrombin site; the methods say that it was eluted with the His-tag intact; 15N-labelled for the NMR experiment with ubiquitin; source: E. coli BL21 (DE3), purified (Ni-NTA, imidazole elution, SEC); not shown: polyhistidine tag, N-terminal, kept

binding result [4]: binds
B3: His-hRpn10^full-length (natural protein, human, UniProt P55036 1-377, looked up)
chain: MVLESTMVCVDNSEYMRNGDFLPTRLQAQQDAVNIVCHSKTRSNPENNVGLITLANDCEVLTTLTPDTGRILSKLHTVQPKGKITFCTGIRVAHLALKHRQGKNHKMRIIAFVGSPVEDNEKDLVKLAKRLKKEKVNVDIINFGEEEVNTEKLTAFVNTLNGKDGTGSHLVTVPPGPSLADALISSPILAGEGGAMLGLGASDFEFGVDPSADPELALALRVSMEEQRQRQEEEARRAAAASAAEAGIATTGTEDSDDALLKMTISQQEFGRTGLPDLSSMTEEEQIAYAMQMSLQGAEFGQAESADIDASSAMDTSEPAKEEDDYDVMQDPEFLQSVLENLPGVDPNNEAIRNAMGSLASQATKDGKKDKKEEDKK
notes: human Rpn10 (hRpn10/PSMD4/S5a), full length; pET11d plasmid, a gift from Dr Fumio Hanaoka; also called His6-hRpn10^full-length; source: E. coli BL21 (DE3), purified (Ni-NTA, imidazole elution, SEC); not shown: His6, N-terminal, kept

Source: article PMC7064531, “Structure of E3 ligase E6AP with a proteasome-binding site provided by substrate receptor hRpn10” (Nature Communications, 2020)
